B1: N^ε29-[(4S)-4-carboxy-4-[[(4S)-4-carboxy-4-[[2-[2-[2-[[2-[2-[2-[[(4S)-4-carboxy-4-(17-carboxyheptadecanoylamino)butanoyl]amino]ethoxy]ethoxy]acetyl]amino]ethoxy … (peptide)
peptide: H[Aib]QGTFTSDLSKYLDSRRAREFVQWLLNK([γGlu-γGlu-AEEA-AEEA-γGlu-C18 diacid])-NH2
modifications: N-terminus assumed
SMILES: CC(C)C[C@H](NC(=O)[C@H](CC(C)C)NC(=O)[C@H](Cc1c[nH]c2ccccc12)NC(=O)[C@H](CCC(N)=O)NC(=O)[C@@H](NC(=O)[C@H](Cc1ccccc1)NC(=O)[C@H](CCC(=O)O)NC(=O)[C@H](CCCNC(=N)N)NC(=O)[C@H](C)NC(=O)[C@H](CCCNC(=N)N)NC(=O)[C@H](CCCNC(=N)N)NC(=O)[C@H](CO)NC(=O)[C@H](CC(=O)O)NC(=O)[C@H](CC(C)C)NC(=O)[C@H](Cc1ccc(O)cc1)NC(=O)[C@H](CCCCN)NC(=O)[C@H](CO)NC(=O)[C@H](CC(C)C)NC(=O)[C@H](CC(=O)O)NC(=O)[C@H](CO)NC(=O)[C@@H](NC(=O)[C@H](Cc1ccccc1)NC(=O)[C@@H](NC(=O)CNC(=O)[C@H](CCC(N)=O)NC(=O)C(C)(C)NC(=O)[C@@H](N)Cc1c[nH]cn1)[C@@H](C)O)[C@@H](C)O)C(C)C)C(=O)N[C@@H](CC(N)=O)C(=O)N[C@@H](CCCCNC(=O)CC[C@H](NC(=O)CC[C@H](NC(=O)COCCOCCNC(=O)COCCOCCNC(=O)CC[C@H](NC(=O)CCCCCCCCCCCCCCCCC(=O)O)C(=O)O)C(=O)O)C(=O)O)C(N)=O
B2: N^ε29-[(4S)-4-carboxy-4-[[(4S)-4-carboxy-4-[[2-[2-[2-[[(4S)-4-carboxy-4-(17-carboxyheptadecanoylamino)butanoyl]amino]ethoxy]ethoxy]acetyl]amino]butanoyl]amino]b … (peptide)
peptide: H[Aib]QGTFTSDLSKYLDLRRAREFVQWLLNK([γGlu-γGlu-AEEA-γGlu-C18 diacid])-NH2
modifications: N-terminus assumed
SMILES: CC(C)C[C@H](NC(=O)[C@H](CC(C)C)NC(=O)[C@H](Cc1c[nH]c2ccccc12)NC(=O)[C@H](CCC(N)=O)NC(=O)[C@@H](NC(=O)[C@H](Cc1ccccc1)NC(=O)[C@H](CCC(=O)O)NC(=O)[C@H](CCCNC(=N)N)NC(=O)[C@H](C)NC(=O)[C@H](CCCNC(=N)N)NC(=O)[C@H](CCCNC(=N)N)NC(=O)[C@H](CC(C)C)NC(=O)[C@H](CC(=O)O)NC(=O)[C@H](CC(C)C)NC(=O)[C@H](Cc1ccc(O)cc1)NC(=O)[C@H](CCCCN)NC(=O)[C@H](CO)NC(=O)[C@H](CC(C)C)NC(=O)[C@H](CC(=O)O)NC(=O)[C@H](CO)NC(=O)[C@@H](NC(=O)[C@H](Cc1ccccc1)NC(=O)[C@@H](NC(=O)CNC(=O)[C@H](CCC(N)=O)NC(=O)C(C)(C)NC(=O)[C@@H](N)Cc1c[nH]cn1)[C@@H](C)O)[C@@H](C)O)C(C)C)C(=O)N[C@@H](CC(N)=O)C(=O)N[C@@H](CCCCNC(=O)CC[C@H](NC(=O)CC[C@H](NC(=O)COCCOCCNC(=O)CC[C@H](NC(=O)CCCCCCCCCCCCCCCCC(=O)O)C(=O)O)C(=O)O)C(=O)O)C(N)=O
B3: N^ε29-[(4S)-4-carboxy-4-[[(4S)-4-carboxy-4-[[2-[2-[2-[[2-[2-[2-[[(4S)-4-carboxy-4-(17-carboxyheptadecanoylamino)butanoyl]amino]ethoxy]ethoxy]acetyl]amino]ethoxy … (peptide)
peptide: H[Aib]QGTFTSDLSKYLDSKAAQEFVQWLLNK([γGlu-γGlu-AEEA-AEEA-γGlu-C18 diacid])-NH2
modifications: N-terminus assumed
SMILES: CC(C)C[C@H](NC(=O)[C@H](CC(C)C)NC(=O)[C@H](Cc1c[nH]c2ccccc12)NC(=O)[C@H](CCC(N)=O)NC(=O)[C@@H](NC(=O)[C@H](Cc1ccccc1)NC(=O)[C@H](CCC(=O)O)NC(=O)[C@H](CCC(N)=O)NC(=O)[C@H](C)NC(=O)[C@H](C)NC(=O)[C@H](CCCCN)NC(=O)[C@H](CO)NC(=O)[C@H](CC(=O)O)NC(=O)[C@H](CC(C)C)NC(=O)[C@H](Cc1ccc(O)cc1)NC(=O)[C@H](CCCCN)NC(=O)[C@H](CO)NC(=O)[C@H](CC(C)C)NC(=O)[C@H](CC(=O)O)NC(=O)[C@H](CO)NC(=O)[C@@H](NC(=O)[C@H](Cc1ccccc1)NC(=O)[C@@H](NC(=O)CNC(=O)[C@H](CCC(N)=O)NC(=O)C(C)(C)NC(=O)[C@@H](N)Cc1c[nH]cn1)[C@@H](C)O)[C@@H](C)O)C(C)C)C(=O)N[C@@H](CC(N)=O)C(=O)N[C@@H](CCCCNC(=O)CC[C@H](NC(=O)CC[C@H](NC(=O)COCCOCCNC(=O)COCCOCCNC(=O)CC[C@H](NC(=O)CCCCCCCCCCCCCCCCC(=O)O)C(=O)O)C(=O)O)C(=O)O)C(N)=O
B4: N^ε29-[(4S)-4-carboxy-4-[[(4S)-4-carboxy-4-[[2-[2-[2-[[(4S)-4-carboxy-4-(17-carboxyheptadecanoylamino)butanoyl]amino]ethoxy]ethoxy]acetyl]amino]butanoyl]amino]b … (peptide)
peptide: H[Aib]QGTFTSDLSKYLDARRAREFVQWLLNK([γGlu-γGlu-AEEA-γGlu-C18 diacid])-NH2
modifications: N-terminus assumed
SMILES: CC(C)C[C@H](NC(=O)[C@H](Cc1ccc(O)cc1)NC(=O)[C@H](CCCCN)NC(=O)[C@H](CO)NC(=O)[C@H](CC(C)C)NC(=O)[C@H](CC(=O)O)NC(=O)[C@H](CO)NC(=O)[C@@H](NC(=O)[C@H](Cc1ccccc1)NC(=O)[C@@H](NC(=O)CNC(=O)[C@H](CCC(N)=O)NC(=O)C(C)(C)NC(=O)[C@@H](N)Cc1c[nH]cn1)[C@@H](C)O)[C@@H](C)O)C(=O)N[C@@H](CC(=O)O)C(=O)N[C@@H](C)C(=O)N[C@@H](CCCNC(=N)N)C(=O)N[C@@H](CCCNC(=N)N)C(=O)N[C@@H](C)C(=O)N[C@@H](CCCNC(=N)N)C(=O)N[C@@H](CCC(=O)O)C(=O)N[C@@H](Cc1ccccc1)C(=O)N[C@H](C(=O)N[C@@H](CCC(N)=O)C(=O)N[C@@H](Cc1c[nH]c2ccccc12)C(=O)N[C@@H](CC(C)C)C(=O)N[C@@H](CC(C)C)C(=O)N[C@@H](CC(N)=O)C(=O)N[C@@H](CCCCNC(=O)CC[C@H](NC(=O)CC[C@H](NC(=O)COCCOCCNC(=O)CC[C@H](NC(=O)CCCCCCCCCCCCCCCCC(=O)O)C(=O)O)C(=O)O)C(=O)O)C(N)=O)C(C)C
B5: N^ε29-[(4S)-4-carboxy-4-[[(4S)-4-carboxy-4-[[2-[2-[2-[[2-[2-[2-[[(4S)-4-carboxy-4-(17-carboxyheptadecanoylamino)butanoyl]amino]ethoxy]ethoxy]acetyl]amino]ethoxy … (peptide)
peptide: H[Aib]QGTFTSDLSKYLDSRAAREFVQWLLNK([γGlu-γGlu-AEEA-AEEA-γGlu-C18 diacid])-NH2
modifications: N-terminus assumed
SMILES: CC(C)C[C@H](NC(=O)[C@H](CC(C)C)NC(=O)[C@H](Cc1c[nH]c2ccccc12)NC(=O)[C@H](CCC(N)=O)NC(=O)[C@@H](NC(=O)[C@H](Cc1ccccc1)NC(=O)[C@H](CCC(=O)O)NC(=O)[C@H](CCCNC(=N)N)NC(=O)[C@H](C)NC(=O)[C@H](C)NC(=O)[C@H](CCCNC(=N)N)NC(=O)[C@H](CO)NC(=O)[C@H](CC(=O)O)NC(=O)[C@H](CC(C)C)NC(=O)[C@H](Cc1ccc(O)cc1)NC(=O)[C@H](CCCCN)NC(=O)[C@H](CO)NC(=O)[C@H](CC(C)C)NC(=O)[C@H](CC(=O)O)NC(=O)[C@H](CO)NC(=O)[C@@H](NC(=O)[C@H](Cc1ccccc1)NC(=O)[C@@H](NC(=O)CNC(=O)[C@H](CCC(N)=O)NC(=O)C(C)(C)NC(=O)[C@@H](N)Cc1c[nH]cn1)[C@@H](C)O)[C@@H](C)O)C(C)C)C(=O)N[C@@H](CC(N)=O)C(=O)N[C@@H](CCCCNC(=O)CC[C@H](NC(=O)CC[C@H](NC(=O)COCCOCCNC(=O)COCCOCCNC(=O)CC[C@H](NC(=O)CCCCCCCCCCCCCCCCC(=O)O)C(=O)O)C(=O)O)C(=O)O)C(N)=O

Numbered stars: 1 amine (or outer) side, 2 acyl side, 3 side chain; on linkers, the order of the positions; unused ones are H or OH. Square brackets hold non-standard residues; d marks the D form. Side chains are listed from the residue outwards. Ends that are not written are not given here. * marks the point of attachment. C18 diacid = O=C(O)CCCCCCCCCCCCCCCCC(=O)*; γGlu = O=C(O)[C@H](CCC(=O)[*:2])N[*:1]; AEEA = NCCOCCOCC(=O)O; Aib = CC(C)(N)C(=O)O

The first experiment concerns the target T1, human GLP-1 receptor (human, UniProt P43220 24-463). Description: cell-based or functional assay.
For the molecule B1, the “EC50 GLP-1R, CRE luciferase reporter gene assay in BHK cells” value (“EC50 GLP-1R” below) was found to be 14.7 pM.

On to B2, for which the “EC50 GLP-1R” value worked out at 13 pM.

As to H[Aib]QGTFTSDLSKYLDKRAAREFVAWLLNT-NH2 (not fully specified), the “EC50 GLP-1R” value was found to be 2.3 pM.

With B3, the “EC50 GLP-1R” value stood at 29.6 pM.

Turning to B4, the “EC50 GLP-1R” value was 4 pM.

For H[Aib]QGTFTSDLSKYLESKRAREFVQWLLKT-NH2 (not fully specified), the “EC50 GLP-1R” value came to 11.8 pM.

B5: the “EC50 GLP-1R” value was found to be 3.2 pM.

For another experiment, the target named is T2, human glucagon receptor (human, UniProt P47871 26-477). In words: cell-based or functional assay.
T2 sequence (P47871 26-477): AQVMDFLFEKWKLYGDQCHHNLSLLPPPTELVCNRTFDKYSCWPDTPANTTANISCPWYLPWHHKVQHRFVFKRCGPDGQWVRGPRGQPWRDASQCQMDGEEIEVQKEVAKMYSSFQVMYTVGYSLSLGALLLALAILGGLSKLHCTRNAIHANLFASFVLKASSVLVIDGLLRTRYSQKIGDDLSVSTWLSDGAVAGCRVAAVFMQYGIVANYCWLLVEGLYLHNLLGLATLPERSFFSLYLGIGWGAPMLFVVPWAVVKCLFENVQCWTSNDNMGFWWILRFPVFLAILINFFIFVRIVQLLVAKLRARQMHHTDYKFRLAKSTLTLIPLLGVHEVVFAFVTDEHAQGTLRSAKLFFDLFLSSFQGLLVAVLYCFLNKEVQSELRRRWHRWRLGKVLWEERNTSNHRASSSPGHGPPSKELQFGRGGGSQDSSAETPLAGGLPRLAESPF
For the molecule B1, the “EC50 GlucR, CRE luciferase reporter gene assay in BHK cells” value (“EC50 GlucR” for short) was 104 pM.

On to B2, for which the “EC50 GlucR” value was determined as 24 pM.

As to H[Aib]QGTFTSDLSKYLDKRAAREFVAWLLNT-NH2 (not fully specified), the “EC50 GlucR” value was found to be 220 pM.

Regarding B3, the “EC50 GlucR” value came out at 1130 pM.

As for B4, the “EC50 GlucR” value stood at 12 pM.

For the molecule H[Aib]QGTFTSDLSKYLESKRAREFVQWLLKT-NH2 (not fully specified), the “EC50 GlucR” value is 87.1 pM.

B5: the “EC50 GlucR” value came to 699 pM.

For another experiment, the target named is T2, human glucagon receptor. Description: displacement of 125I-glucagon, membranes with human glucagon receptor, SPA. On the procedure:
The receptor binding of each compound to the human glucagon receptor was measured in a displacement binding assay. […] Each derivative was added in a series of concentrations to isolated membranes containing the human glucagon receptor and displacement of the labelled ligand is monitored. The receptor binding was reported as the concentration at which half of the labelled ligand is displaced from the receptor, the IC₅₀ value.
With B1, the IC50 (as a rule, the concentration that gives 50% inhibition) is 7 nM. This counts as single-digit nanomolar.

Turning to B2, the concentration for half-maximal inhibition (IC50) stood at 29.4 nM. This IC50 lies about 4.2-fold higher than the previous one.

H[Aib]QGTFTSDLSKYLDKRAAREFVAWLLNT-NH2 (not fully specified) returned a half-inhibitory concentration (IC50) of 11 nM.

Regarding B3, the IC50 turned out to be 6.7 nM.

Regarding B4, the IC50 was 5.6 nM. The IC50 values of the last two molecules are within 1.5-fold of each other.

H[Aib]QGTFTSDLSKYLESKRAREFVQWLLKT-NH2 (not fully specified) returned a concentration for half-maximal inhibition (IC50) of 7.1 nM.

The molecule B5 displayed an IC50 of 381 nM.

The target of a further experiment is T1, human GLP-1 receptor. In words: displacement of 125I-GLP-1(7-36)NH2, membranes with human GLP-1R, SPA. On the procedure: The receptor binding of each compound to the human GLP-1 receptor was measured in a displacement binding assay. […] Each derivative was added in a series of concentrations to isolated membranes containing the human GLP-1 receptor and displacement of the labelled ligand was monitored. The receptor binding was reported as the concentration at which half of the labelled ligand was displaced from the receptor, the IC₅₀ value.
On the technique in general: In a radioligand displacement assay an active substance lowers the binding of a labelled ligand.
B1 showed an IC50 of 0.5 nM.

The molecule B2 gave an IC50 of 1.2 nM.

Take H[Aib]QGTFTSDLSKYLDKRAAREFVAWLLNT-NH2 (not fully specified): the IC50 stood at 0.1 nM.

With B3, the IC50 was 1.1 nM.

B4 had an IC50 of 0.3 nM.

On to H[Aib]QGTFTSDLSKYLESKRAREFVQWLLKT-NH2 (not fully specified), for which the IC50 is 0.2 nM.

In turn, B5 yielded an IC50 of 0.2 nM.

For the origin of these results see patent US20150374794A1 (Novo Nordisk, published 2015).
